The numbers were not newly measured in patent US11207433B2, “Imaging agents and uses thereof” (Washington University, priority 2018, dated 2021), which cites them from elsewhere.

Bridges are numbered along the chain shown (N, C = ends). Where no end group is shown, it is not given here.

The series concerns the target T1, NPR-C receptor (Homo sapiens, UniProt P17342).
T1 sequence (P17342 27-541): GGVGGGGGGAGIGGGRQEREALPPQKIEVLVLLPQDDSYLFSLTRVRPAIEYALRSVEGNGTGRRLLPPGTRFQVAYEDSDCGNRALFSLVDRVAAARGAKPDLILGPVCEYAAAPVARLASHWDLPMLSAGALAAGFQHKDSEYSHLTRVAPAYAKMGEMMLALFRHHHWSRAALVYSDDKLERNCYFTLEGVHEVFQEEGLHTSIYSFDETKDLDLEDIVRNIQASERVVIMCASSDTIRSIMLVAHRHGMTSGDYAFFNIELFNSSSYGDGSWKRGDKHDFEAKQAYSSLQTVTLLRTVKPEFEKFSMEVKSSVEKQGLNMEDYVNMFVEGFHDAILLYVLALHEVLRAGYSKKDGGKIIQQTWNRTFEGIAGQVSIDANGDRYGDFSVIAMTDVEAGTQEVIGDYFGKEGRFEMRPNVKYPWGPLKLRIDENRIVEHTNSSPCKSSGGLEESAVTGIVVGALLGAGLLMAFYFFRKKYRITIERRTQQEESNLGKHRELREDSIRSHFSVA
The following applies: in vivo.

As for “^64Cu-DOTA-CANF-Comb: CANF peptide functionalized polymeric nanoparticle, described in U.S. Patent Application Publication No. 2011/0300071 (RSSCFGGRIDRIGAC-NH2; disulfide 4-15; also: conjugated to polymeric nanoparticle, DOTA chelator, 64Cu label)”, the “delay from injection to optimal PET imaging time” value was around 12 h.
